Measurements: the supplement of paper PMC9170038

How the values were obtained:
MS2 coat protein [1] = assay: apparent KD of MS2 coat protein, switch OFF state (with FMN for OFF switches, without FMN for ON switches); designed switch direction (-1 OFF switch, 1 ON switch): -1; higher = weaker reporter binding; conditions: FMN input: 0 or 200 uM; Eterna round: R93 (includes R88 designs)
Outline: (§1)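 With or without constant ligand, designed RNA switches in 100 mM Tris-HCl pH 7.5, 80 mM KCl and 4 mM MgCl2 were titrated with SNAP-549-labelled MS2 coat protein. Concentrations went up in twofold steps from 0.7 or 1.5 nM to 3 µM. The switches had been transcribed on-chip from Illumina sequencing clusters, and apparent KD is the per-design median of normalised cluster binding-curve fits.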

MS2 coat protein [2] = assay: apparent KD of MS2 coat protein, switch ON state; designed switch direction (-1 OFF switch, 1 ON switch): -1; higher = weaker reporter binding; conditions: FMN input: 0 or 200 uM; Eterna round: R93 (includes R88 designs)
Outline: as §1

| Sequence | apparent KD of MS2 coat protein (MS2 coat protein [1]) | apparent KD of MS2 coat protein (MS2 coat protein [2]) |
| --- | --- | --- |
| GCUUGGGUAGGAUAUACAUGAGGAUCACCCAUGUGAGAGAAAAAAGUGAGAAAGAAAAGUAGAAGGACUUGAGG [salish99-ex3-83] | 174 nM | 177 nM |
| AAGAUGUCAGGAUAUGCUUGUCGUCACAAAAGUGAUGACGAGCAGAAGGGACAUGAGGAUCACCCAUGUAAAGA [JL eternac mod 3] | 303 nM | 148 nM |
| CCCAUGUCAGGAUAUCAGUAGUAAAAAAAAAAAAUUACUACUGAGAAGGGACAUGAGGAUCACCCAUGUCCAAA [EX4 316: Super Stable 16] | 38.7 nM | 61.7 nM |
| AAGAACGAAGGAUAUACAUGAGGAUCACCCAUGUAAAAGAAAGAAGGGAAAGAGAAAAGUAGAAGGUCGAAGAA [Usermaatre Piye] | 24.4 nM | 22.2 nM |
| GGAGGCGUAGGAUAUACAUGAGGAUCACCCAUGUGAGAGAAAAAAGUGAGAAAGAAAAGUAGAAGGACGUUUCG [salish99-ex3-127] | 92.1 nM | 45.4 nM |
| AAAAAACAUGAGGAUCACCCAUGUCAGGAUAUCCGAAAAAAAAAAAAAAAAAGGCCUUGGAGAAGGGACAUUCC [Chica Displaced 7- Jieux - Exclusion 1] | 57.5 nM | 53.7 nM |
| AAAUUGUCAGGAUAUCCUAUAAUAAUAAAAUAGAGGAAAUAGGAGAAGGGACAUGAGGAUCACCCAUGUAAAAC [May 84] | 37 nM | 49.2 nM |
| AAAAAGGAAGGAUAUACGAACAUGUCAAAAGACGUGAAGGGACAUGAGGAUCACCCAUGUAGAAGGUUCAAAAA [JL Half Open 24] | 18.5 nM | 38.7 nM |
| AAGAAGCUAGGAUAUACUUGGGCAACAAAUAAACUAAUAUAACAUGAGGAUCACCCAUGUAGAAGGAGCAGAAA [JR_Exc002_Sub205] | 39.8 nM | 39.7 nM |
| AAAACACAUGAGGAUCACCCAUGUGAGGAUAUGAACGAAAUAAAAUAAAAAUAAAAGUUCAGAAGGCACAAAAA [Mat - Exclusion 1 - Eli mod - D13] | 36.6 nM | 22.2 nM |
| AGUAUGCGAGGAUAUACAUGAGGAUCACCCAUGUGAGAGAUAAAAGUGAGAAAGACAUGUAGAAGGCGCGUACA [JL Lego Mod 24] | 27 nM | 38.9 nM |
| AAAAAGUGAGGAUAUUCGGAUAGGAAAACGAAAACCUAUCCGAAGAAGGCACAUGAGGAUCACCCAUGUGGGAA [67% Ecls-II - Early G + late G segment 3] | 75.9 nM | 52.6 nM |
| GAAGUGUUAGGAUAUCGAUGAAUAAUAAAACAAAGGAACAUUGAGAAGGAACAUGAGGAUCACCCAUGUAUAAC [May 81] | 25.2 nM | 27.7 nM |
| AGUCGGCGAGGAUAUACAUGAGGAUCACCCAUGUGAGAGCUAAAAGUGAGUCAGAAAAGUAGAAGGCGCUGACA [JL Lego Mod 6] | 94.1 nM | 96.5 nM |
| AAGAAGCUAGGAUAUACAUGAAAGAAAGAAAAGAAAAGAAAACAUGAGGAUCACCCAUGUAGAAGGAGCUAGAA [EteRNA is fun!] | 32.5 nM | 33.1 nM |
| AGGGUACAUGAGGAUCACCCAUGUUAGGAUAUUGAAAAGAAAAGAAAAGAAAGAAGAACAAGAAGGGACAAGAA [Userkare] | 45.7 nM | 56.5 nM |
| AAGGGACAUGAGGAUCACCCAUGUCAGGAUAUGCAAAUAACAAACAACAAACAACAAAGCAGAAGGGACAAAAA [Mat - Exclusion 1 - Eli mod - D53] | 24.8 nM | 27.9 nM |
| AACAGGACAGGAUAUACAUGAGGAUCACCCAUGUCACAACAAAGCAGCGCAACACAAAGUAGAAGGGUCAUGGA [Ruby 13] | 59.1 nM | 75.8 nM |
| UAAAGACAUGAGGAUCACCCAUGUGAGGAUAUCGGAGGUGACGGAGCAUCGAGUUCGGCGAGAAGGCGCAGGAA [JR_Exc001_Sub409] | 53.4 nM | 67.2 nM |
| AAAAAACAUGAGGAUCACCCAUGUGAGGAUAUUAAAAAUAAGAAGGCAUAAAAAAAAAUAAGAAGGCACAUGAA [Meechl MS2 Ex1] | 33.2 nM | 27.9 nM |
| AAGAAGUCAGGAUAUGCCAAAGAUCACGAAAGUGACAAAGGGCAGAAGGGACAUGAGGAUCACCCAUGUAAAGA [Opal 3] | 62.4 nM | 54.7 nM |
| AAAAAGGCAGGAUAUACAUGAGGAUCACCCAUGUAAAGAAAAGAAAGAUCCAAAGAAAGUAGAAGGGCCAAAAA [Ex3 sub 3] | 170 nM | 48.8 nM |
| AAGAACCGAGGAUAUACUAAAGAAAUGAAAAGAAAUAAAGAACAUGAGGAUCACCCAUGUAGAAGGCGGAAGAA [Nebefawre] | 23.4 nM | 27.4 nM |

| Sequence | apparent KD of MS2 coat protein (MS2 coat protein [1]) | apparent KD of MS2 coat protein (MS2 coat protein [2]) |
| --- | --- | --- |
| AUAAGUCGAGGAUAUACGAAAUGCUAGCGAAAGCUAGCAUAACAUGAGGAUCACCCAUGUAGAAGGCGACAAUA [Tetraloop hairpin BlockHead... 61% 3] | 20.6 nM | 22.9 nM |
| AAAAAACAUGAGGAUCACCCAUGUCAGGAUAUCCGGUUCUUAAAAAAAAAAAGGCGUUGGAGAAGGGACAUUCC [Chica Displaced 11 - Jieux - Exclusion 1] | 38 nM | 28.9 nM |
| GAGAAGUGAGGAUAUCGAAGACAGACGAAAAGUCUGUCAAACGAGAAGGCACAUGAGGAUCACCCAUGUGGGAA [Mat - Exaclusion 4 - Eli mod - D76] | 140 nM | 75.8 nM |
| AGAAAGCUAGGAUAUACCUGGAGGGUUCGAAAUGAAAUAAAACAUGAGGAUCACCCAUGUAGAAGGAGCCCGAG [Veislela] | 28 nM | 42.6 nM |
| AAGGUACGAGGAUAUACAUAGAUACAGACACAUGUGGAUGUACAUGAGGAUCACCCAUGUAGAAGGCGUAUAUA [AJ 21] | 101 nM | 64 nM |
| AGAUAGUCAGGAUAUACGAACAAGAAAAAAGACGAGAACGGACAUGAGGAUCACCCAUGUAGAAGGGACUAGAA [Diamond 11] | 28.6 nM | 45 nM |
| GAAAGGGCAGGAUAUGCAGAGAGAGAGAGAGAGAGAGAGAAACAUGAGGAUCACCCAUGUAGAAGGGCCGAAAG [salish99-ex2-07] | 29.2 nM | 30.9 nM |
| AAGGGACAUGAGGAUCACCCAUGUGAGGAUAUGCUAUGGAAAAUAAAAAUAAAACAUAGCAGAAGGCAUAAAAA [Denovo 9] | 44.8 nM | 60.1 nM |
| CGCAAGUCAGGAUAUUCGACAAGUAAAUCAGUAGAUCAAAAGAAGAAGGGACAUGAGGAUCACCCAUGUAAAUA [JR_Exc004_Sub403] | 26 nM | 40 nM |
| AAAAAGGGAGGAUAUGCAAAGGGAAAGGGAAAGGGAAAGGGACAUGAGGAUCACCCAUGUAGAAGGCUCAAAAA [scarecrow2] | 34 nM | 56.1 nM |
| CGUUUGUUAGGAUAUAGCCACAUUACGAAUAAGUAGUGUGGCUAGAAGGAACAUGAGGAUCACCCAUGUAUGGG [Exclusion 4.3 (AU closing FMN)] | 78.5 nM | 110 nM |
| AAGAAGUCAGGAUAUACAAAAUAAAAGAAAAGAAAGAAAGAACAUGAGGAUCACCCAUGUAGAAGGGACAAGAA [Nerikare] | 37.4 nM | 57.8 nM |
| GGAAAACAUGAGGAUCACCCAUGUGAGGAUAUCGAUGUCCAAAAAAAAGUGCGGGACUCGAGAAGGCACUUGGC [salish99-ex1-33] | 34.3 nM | 51.5 nM |
| AAAAUACAUGAGGAUCACCCAUGUGAGGAUAUGCUAUGGAAAAAUAAAAUAAAACAUAGCAGAAGGCACAAAAA [Mat - Exclusion 1 - Eli mod - D41] | 73.4 nM | 34.3 nM |
| AAAAUGUGAGGAUAUCUGGAUAGGAAAAAGAAAACCUAUCCAGAGAAGGCACAUGAGGAUCACCCAUGUAAAAA [JL cataway mod 4] | 114 nM | 121 nM |
| AGAGAGAGAGGAUAUACAUGAGGAUCACCCAUGUAAAAGAAAGAAAAGGGAAAGAAAAGUAGAAGGCUCAGAGA [Ruby 65] | 53.5 nM | 31.6 nM |
| GGAAAACAUGAGGAUCACCCAUGUAAGGAUAUGCAAAAGGAUAUAGAAGGAAAAAAAAGCAGAAGGUACAAAGG [salish99-ex1-21] | 151 nM | 32.5 nM |
| CUCAAGUGAGGAUAUACAAAUAGUAAAUAAGUAUAACAAAAGUAGAAGGCACAUGAGGAUCACCCAUGUAAAUA [JR_Exc004_Sub302] | 26.3 nM | 29.4 nM |
| GUGUACAGAGGAUAUACAUGGGCAUGAAAACAUGCAUCCUCACAUGAGGAUCACCCAUGUAGAAGGCUGUACAC [Ex2: 706] | 25.7 nM | 24.5 nM |
| AAGAAUGGAGGAUAUACAUGAGGAUCACCCAUGUAAAAGAAAGAAAAGGGAAAGAAAAGUAGAAGGCCAAAGAA [Sekhaenre/Akhenre Merenptah Siptah] | 41 nM | 28.5 nM |
| UUUAUGUGAGGAUAUGUACAGAAAAAAAAGGGUGUAACUGUACAGAAGGCACAUGAGGAUCACCCAUGUGAAUA [EX4 381: S S Pseudoknot 6] | 216 nM | 113 nM |
| AAAAAGUCAGGAUAUUCGGAAGGGAAAGCGCAAACCCAACCGAAGAAGGGACAUGAGGAUCACCCAUGUAAAAA [Ecls4-III] | 42.9 nM | 49.6 nM |
